Test results reported in PMC2873477, “Reconstruction of xylose utilization pathway and regulons in Firmicutes” (BMC Genomics, 2010).

Legend:
XylB = target: T1, XylB (Clostridium acetobutylicum, UniProt Q97FW4); test: coupled pyruvate kinase / lactate dehydrogenase assay, NADH at […] nm; type: biochemical; conditions: 50 mM Tris pH 7.5, 10 mM MgSO4, 1.2 mM ATP, 1 mM D-xylulose
T1 construct: full-length coding region, N-terminal His6 tag (pET28a), E. coli BL21(DE3), Ni-NTA purified
T1 sequence (Q97FW4 1-500): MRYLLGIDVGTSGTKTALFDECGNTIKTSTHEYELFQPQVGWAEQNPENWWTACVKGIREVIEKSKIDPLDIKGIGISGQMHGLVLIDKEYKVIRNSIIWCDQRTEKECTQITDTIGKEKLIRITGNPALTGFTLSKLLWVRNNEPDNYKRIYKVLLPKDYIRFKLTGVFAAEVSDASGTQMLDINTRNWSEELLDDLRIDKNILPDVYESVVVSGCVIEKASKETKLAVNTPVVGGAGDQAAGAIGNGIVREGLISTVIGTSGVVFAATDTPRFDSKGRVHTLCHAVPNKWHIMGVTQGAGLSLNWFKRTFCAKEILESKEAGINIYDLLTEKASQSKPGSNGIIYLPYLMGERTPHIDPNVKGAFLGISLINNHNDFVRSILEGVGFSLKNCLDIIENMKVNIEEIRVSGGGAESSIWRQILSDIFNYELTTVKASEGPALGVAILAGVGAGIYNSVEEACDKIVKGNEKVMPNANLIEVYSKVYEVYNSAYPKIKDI

[1] = target: T2, XylR (Clostridium acetobutylicum ATCC 824) (UniProt Q97D10); test: EMSA; conditions: 10 mM Tris pH 7.5, 50 mM KCl, 1 mM DTT, 2.5% glycerol, 5 mM MgCl2, 0.05% NP-40, 2 ug salmon sperm DNA in 20 ul, 28 C 20 min; 6% native PAGE 0.5x TBE at 4 C
T2 sequence: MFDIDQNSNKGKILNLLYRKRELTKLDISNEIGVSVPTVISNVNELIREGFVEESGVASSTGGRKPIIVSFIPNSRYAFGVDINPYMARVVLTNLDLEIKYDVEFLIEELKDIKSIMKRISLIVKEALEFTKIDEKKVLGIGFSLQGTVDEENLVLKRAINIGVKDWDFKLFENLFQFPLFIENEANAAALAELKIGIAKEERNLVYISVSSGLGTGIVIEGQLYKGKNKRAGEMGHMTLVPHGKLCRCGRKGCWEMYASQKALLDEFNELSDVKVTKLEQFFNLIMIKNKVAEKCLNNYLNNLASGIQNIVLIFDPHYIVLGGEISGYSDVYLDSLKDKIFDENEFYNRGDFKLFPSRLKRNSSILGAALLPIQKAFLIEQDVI

Question: How did the “coupled pyruvate kinase / lactate dehydrogenase assay, NADH at 340 nm” value (XylB) turn out when Nc1ncnc2c1ncn2[C@@H]1O[C@H](COP(=O)(O)OP(=O)(O)OP(=O)(O)O)[C@@H](O)[C@H]1O [ATP] was run?
Answer: The value was “coupling the formation of ADP to the oxidation of NADH to NAD^+”.

Question: Which binding [1] does the source give for “AATCAAACCCCCTTAATTTTAAATAACTTTTTAAATATCCTTTAATAAGTCTATTTTACTTTTTTTACCTCCTACAGTCAATATGTTTTTGTAAACTTTTTCATTTTATTTATATAATGGCTTATATGGCACTGCATTTCACATAAAAATTGTAATAAAAAAAACTGCCCTTAAATTTTC (double strand) [xylB upstream fragment]” here?
Answer: The binding was “binds”.

Question: Which binding [1] does the source give for “CACCAACCTTAATCACTAGTATTTTACTTTACCTTCATATTGTACCATATACTATATCCCCACAAAAGCCTTTATAAAGTTGTTTTATAAAGTATATATACTATGTATATTTTTTCTTATATAGTTTTAATACAAAAATGAAGTAAAGATATCAATTATATATCTTTACTTCACTTACGT (double strand) [xylR upstream fragment]” here?
Answer: Its binding is “binds”.

Question: For “CTCCCCATATAATTTAAATTGGTTTTATTTAAAAAATATCTTACCAATATGATTTAAACTTCTCTAATAAATATATGTTTTTAAAGTTTGTTTAATAAGTTTTTTAGATAATCTACTCTTTAAATAAAAGCGCTCCTACTTTTAACTATTTATATATCTTTTATTTTAGGATAAGCTGAA (double strand) [CAC2611-xylA-II upstream fragment]”, which binding [1] is on record?
Answer: Its binding is “binds”.
